In assay [1] the target is human epidermal growth factor receptor (EGFR) (human) (UniProt P00533).
For assay [2] the target is unchanged. This is another data set of the same source.
Assay [3] shares this target. The source holds these as a separate data set.

The values below come from patent publication US9125896B2.

B1: muEGFR-6 (antibody, V domains shown)
VH: QVQLQQSGAELARPGASVKLSCKASGYTFTSYWMQWVKQRPGQGLECIGALYPGDGDARYTQKFKGKATLTADRSSSTAYMQLSSLASEDSAVYYCARYDAPGYAMDYWGQGTSVTVAS
VL: DIQMTQSPSSLSASLGGKVTITCKASQDINNYIAWYQHKPGKGPRLLIHYTSTLHPGIPSRFSGSGSGRDYSFSISNLEPEDIATYYCLQYDNLLYTFGGGTKLEIKR
For the molecule B1, in assay [1], the EC50 (nM), inhibition of basal proliferation of NCI-H292 cells (WST-8, 5 days) is 5.6 nM and the Maximal inhibition (%) of basal proliferation of NCI-H292 cells worked out at 65%. Moreover, in assay [2], the EC50 (nM), inhibition of basal proliferation of HCC827 cells (WST-8, 5 days) was found to be 0.3 nM and the Maximal inhibition (%) of basal proliferation of HCC827 cells was determined as 72%. Besides, in assay [3], the EC50 (nM), H292 tumor cell growth inhibition (Example 11, WST-8) stood at 2.59 nM.

B2: muEGFR-7 (antibody, V domains shown)
VH: QVQLQQSGAELARPGASVKLSCKASGYTFTSYWMQWVKQRPGQGLECIGTIYPGDGDTTYTQKFKGKATLTADKSSSTAYMQLSSLASEDSAVYYCARYDAPGYAMDYWGQGTSVTVSS
VL: DIQMTQSPSSLSASLGGKVTITCKASQDINNYLAWYQHKPGKGPRLLIHYTSTLHPGIPSRFSGSGSGRDYSFSISNLEPEDIATYYCLQYDNLLYTFGGGTKLEIKR
In assay [1], B2 had an EC50 (nM), inhibition of basal proliferation of NCI-H292 cells (WST-8, 5 days) of 0.4 nM and a Maximal inhibition (%) of basal proliferation of NCI-H292 cells of 77%. For the same molecule, in assay [2], the EC50 (nM), inhibition of basal proliferation of HCC827 cells (WST-8, 5 days) is 0.03 nM and the Maximal inhibition (%) of basal proliferation of HCC827 cells stood at 72%. Moreover, the EC50 (nM), H292 tumor cell growth inhibition (Example 11, WST-8) in assay [3] worked out at 0.21 nM.
